US20190134153A1, “IMMUNOMODULATORY EFFECT OF INHALED KINASE INHIBITOR PEPTIDES IN LUNG” (MOERAE MATRIX, INC., priority 2017, published 2019)

Legend:
Assay in all cases: Kinase Profiling Assay
Assay type in all cases: biochemical
Conditions in all cases: 100 μM
CSK(h) = CSK(h) (Homo sapiens, UniProt P41240)
Itk(h) = target: T1, Itk(h) (Homo sapiens, UniProt Q08881)
T1 sequence (Q08881 1-620): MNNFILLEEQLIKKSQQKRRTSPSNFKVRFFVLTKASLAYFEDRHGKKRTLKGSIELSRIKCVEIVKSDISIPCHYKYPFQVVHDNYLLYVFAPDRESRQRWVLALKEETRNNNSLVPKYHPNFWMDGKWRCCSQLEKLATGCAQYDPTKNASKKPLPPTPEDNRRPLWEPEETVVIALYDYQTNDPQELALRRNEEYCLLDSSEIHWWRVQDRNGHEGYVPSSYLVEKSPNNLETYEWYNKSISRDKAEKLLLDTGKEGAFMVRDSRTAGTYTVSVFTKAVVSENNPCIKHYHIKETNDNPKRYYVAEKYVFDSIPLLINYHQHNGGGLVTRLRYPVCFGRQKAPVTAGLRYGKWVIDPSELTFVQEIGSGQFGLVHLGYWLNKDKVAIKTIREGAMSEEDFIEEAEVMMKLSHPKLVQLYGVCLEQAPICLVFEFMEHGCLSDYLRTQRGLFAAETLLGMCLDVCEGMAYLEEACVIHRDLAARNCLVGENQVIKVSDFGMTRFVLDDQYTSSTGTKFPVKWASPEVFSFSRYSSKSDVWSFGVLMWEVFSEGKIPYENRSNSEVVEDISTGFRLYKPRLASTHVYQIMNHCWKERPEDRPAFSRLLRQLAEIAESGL

EGFR(L861Q)(h) = EGFR(L861Q)(h) (Homo sapiens, UniProt P00533, L861Q)
FAK(h) = FAK(h) (Homo sapiens, UniProt Q05397)
RIPK2(h) = RIPK2(h) (Homo sapiens, UniProt O43353)
Ron(h) = Ron(h) (Homo sapiens, UniProt Q04912)
STK33(h) = STK33(h) (Homo sapiens, UniProt Q9BYT3)
mTOR(h) = mTOR(h) (Homo sapiens, UniProt P42345)
MKK6(h) = target: T2, MKK6(h) (Homo sapiens, UniProt P52564)
T2 sequence (P52564 1-334): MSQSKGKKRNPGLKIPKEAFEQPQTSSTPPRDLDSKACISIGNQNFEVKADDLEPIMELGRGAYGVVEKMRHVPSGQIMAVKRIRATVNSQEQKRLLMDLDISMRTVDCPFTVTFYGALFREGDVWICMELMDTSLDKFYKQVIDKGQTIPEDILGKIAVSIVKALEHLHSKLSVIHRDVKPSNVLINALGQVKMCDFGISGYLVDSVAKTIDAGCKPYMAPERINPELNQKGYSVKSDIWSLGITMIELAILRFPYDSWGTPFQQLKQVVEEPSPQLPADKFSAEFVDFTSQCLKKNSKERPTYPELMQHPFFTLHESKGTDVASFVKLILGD

Pim-3(h) = Pim-3(h) (Homo sapiens, UniProt Q86V86)
TSSK1(h) = target: T3, TSSK1(h) (Homo sapiens, UniProt Q9BXA7)
T3 sequence (Q9BXA7 1-367): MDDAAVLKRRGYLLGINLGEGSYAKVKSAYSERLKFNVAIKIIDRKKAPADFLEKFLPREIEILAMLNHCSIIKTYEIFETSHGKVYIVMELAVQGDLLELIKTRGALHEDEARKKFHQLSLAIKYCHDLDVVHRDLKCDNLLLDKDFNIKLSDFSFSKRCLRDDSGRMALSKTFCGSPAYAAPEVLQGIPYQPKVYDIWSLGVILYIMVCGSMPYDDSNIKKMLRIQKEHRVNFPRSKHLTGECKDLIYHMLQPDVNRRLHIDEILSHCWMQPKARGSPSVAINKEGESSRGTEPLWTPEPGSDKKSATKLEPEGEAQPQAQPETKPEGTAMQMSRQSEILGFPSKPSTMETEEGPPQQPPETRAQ

BrSK2(h) = target: T4, BrSK2(h) (Homo sapiens, UniProt Q8IWQ3)
T4 sequence (Q8IWQ3 1-736): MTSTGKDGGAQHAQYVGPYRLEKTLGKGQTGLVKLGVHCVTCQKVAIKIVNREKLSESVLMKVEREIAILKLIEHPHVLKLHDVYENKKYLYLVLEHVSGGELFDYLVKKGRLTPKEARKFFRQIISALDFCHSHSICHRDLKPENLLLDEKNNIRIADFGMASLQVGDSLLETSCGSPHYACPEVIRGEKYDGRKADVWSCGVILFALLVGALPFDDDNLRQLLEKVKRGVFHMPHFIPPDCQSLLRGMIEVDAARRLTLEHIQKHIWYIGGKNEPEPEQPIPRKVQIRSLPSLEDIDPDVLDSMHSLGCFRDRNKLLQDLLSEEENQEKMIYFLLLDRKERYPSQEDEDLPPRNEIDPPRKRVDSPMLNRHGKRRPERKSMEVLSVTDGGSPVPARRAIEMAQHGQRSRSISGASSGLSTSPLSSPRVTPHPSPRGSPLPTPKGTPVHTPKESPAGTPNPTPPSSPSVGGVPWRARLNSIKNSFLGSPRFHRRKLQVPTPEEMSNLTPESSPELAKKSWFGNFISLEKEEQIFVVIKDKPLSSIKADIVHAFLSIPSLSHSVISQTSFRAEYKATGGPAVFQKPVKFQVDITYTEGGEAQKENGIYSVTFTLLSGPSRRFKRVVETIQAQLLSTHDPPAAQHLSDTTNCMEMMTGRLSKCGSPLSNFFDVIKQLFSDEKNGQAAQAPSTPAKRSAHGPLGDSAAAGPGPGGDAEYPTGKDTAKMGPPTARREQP

JNK2α2(h) = JNK2α2(h) (Homo sapiens, UniProt P45984)
CDK2/cyclinA(h) = CDK2/cyclinA(h) (Homo sapiens, UniProt P24941)
MARK1(h) = MARK1(h) (Homo sapiens, UniProt Q9P0L2)
MARK1(h), sequence (Q9P0L2 whole entry): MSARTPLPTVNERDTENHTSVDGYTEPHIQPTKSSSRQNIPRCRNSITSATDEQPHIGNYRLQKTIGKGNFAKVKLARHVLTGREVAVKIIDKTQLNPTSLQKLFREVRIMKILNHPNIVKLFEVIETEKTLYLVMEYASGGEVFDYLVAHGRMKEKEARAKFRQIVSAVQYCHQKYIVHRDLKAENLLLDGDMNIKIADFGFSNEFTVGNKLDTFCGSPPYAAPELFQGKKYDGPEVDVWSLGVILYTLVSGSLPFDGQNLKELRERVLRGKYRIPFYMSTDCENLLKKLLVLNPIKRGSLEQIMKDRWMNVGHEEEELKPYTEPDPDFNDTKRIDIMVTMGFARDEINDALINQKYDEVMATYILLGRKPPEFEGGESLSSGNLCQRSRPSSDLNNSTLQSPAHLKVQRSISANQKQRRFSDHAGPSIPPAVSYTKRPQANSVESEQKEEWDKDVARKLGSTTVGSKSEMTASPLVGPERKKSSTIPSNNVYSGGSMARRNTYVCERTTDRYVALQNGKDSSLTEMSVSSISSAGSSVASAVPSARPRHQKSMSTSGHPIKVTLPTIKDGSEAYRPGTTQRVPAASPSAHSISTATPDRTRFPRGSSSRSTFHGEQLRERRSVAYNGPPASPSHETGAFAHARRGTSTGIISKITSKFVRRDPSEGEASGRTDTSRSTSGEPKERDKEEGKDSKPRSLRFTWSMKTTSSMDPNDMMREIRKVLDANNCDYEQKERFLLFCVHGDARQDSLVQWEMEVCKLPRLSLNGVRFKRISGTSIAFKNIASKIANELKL

STK33(h), sequence (Q9BYT3 whole entry): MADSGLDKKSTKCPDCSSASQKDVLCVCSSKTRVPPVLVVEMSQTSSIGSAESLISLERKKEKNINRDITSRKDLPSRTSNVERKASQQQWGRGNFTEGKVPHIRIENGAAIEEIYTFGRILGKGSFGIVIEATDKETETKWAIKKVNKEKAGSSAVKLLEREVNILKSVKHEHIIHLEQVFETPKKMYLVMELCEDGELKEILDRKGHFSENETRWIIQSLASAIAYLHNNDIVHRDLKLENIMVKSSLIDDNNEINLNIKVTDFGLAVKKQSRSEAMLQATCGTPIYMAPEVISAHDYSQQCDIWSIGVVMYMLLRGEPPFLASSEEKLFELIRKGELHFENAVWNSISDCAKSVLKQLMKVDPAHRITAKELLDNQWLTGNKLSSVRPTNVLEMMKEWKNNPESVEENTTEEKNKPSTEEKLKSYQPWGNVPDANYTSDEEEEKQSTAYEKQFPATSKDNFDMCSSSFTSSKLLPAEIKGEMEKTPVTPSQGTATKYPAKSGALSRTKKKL
RIPK2(h), sequence (O43353 whole entry): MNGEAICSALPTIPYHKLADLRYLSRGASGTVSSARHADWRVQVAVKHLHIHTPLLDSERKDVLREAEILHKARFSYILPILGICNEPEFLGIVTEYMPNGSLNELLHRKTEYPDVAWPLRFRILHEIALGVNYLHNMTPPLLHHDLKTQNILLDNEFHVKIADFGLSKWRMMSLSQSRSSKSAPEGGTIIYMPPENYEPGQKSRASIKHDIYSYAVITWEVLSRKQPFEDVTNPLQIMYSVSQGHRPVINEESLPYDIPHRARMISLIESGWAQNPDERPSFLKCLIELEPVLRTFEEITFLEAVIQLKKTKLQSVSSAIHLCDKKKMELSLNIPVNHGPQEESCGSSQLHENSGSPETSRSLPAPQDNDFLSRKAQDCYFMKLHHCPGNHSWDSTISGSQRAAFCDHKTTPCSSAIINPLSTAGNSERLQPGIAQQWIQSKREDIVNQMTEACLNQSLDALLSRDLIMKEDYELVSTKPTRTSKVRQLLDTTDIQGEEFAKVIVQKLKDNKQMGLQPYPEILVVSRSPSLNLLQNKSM
FAK(h), sequence (Q05397 whole entry): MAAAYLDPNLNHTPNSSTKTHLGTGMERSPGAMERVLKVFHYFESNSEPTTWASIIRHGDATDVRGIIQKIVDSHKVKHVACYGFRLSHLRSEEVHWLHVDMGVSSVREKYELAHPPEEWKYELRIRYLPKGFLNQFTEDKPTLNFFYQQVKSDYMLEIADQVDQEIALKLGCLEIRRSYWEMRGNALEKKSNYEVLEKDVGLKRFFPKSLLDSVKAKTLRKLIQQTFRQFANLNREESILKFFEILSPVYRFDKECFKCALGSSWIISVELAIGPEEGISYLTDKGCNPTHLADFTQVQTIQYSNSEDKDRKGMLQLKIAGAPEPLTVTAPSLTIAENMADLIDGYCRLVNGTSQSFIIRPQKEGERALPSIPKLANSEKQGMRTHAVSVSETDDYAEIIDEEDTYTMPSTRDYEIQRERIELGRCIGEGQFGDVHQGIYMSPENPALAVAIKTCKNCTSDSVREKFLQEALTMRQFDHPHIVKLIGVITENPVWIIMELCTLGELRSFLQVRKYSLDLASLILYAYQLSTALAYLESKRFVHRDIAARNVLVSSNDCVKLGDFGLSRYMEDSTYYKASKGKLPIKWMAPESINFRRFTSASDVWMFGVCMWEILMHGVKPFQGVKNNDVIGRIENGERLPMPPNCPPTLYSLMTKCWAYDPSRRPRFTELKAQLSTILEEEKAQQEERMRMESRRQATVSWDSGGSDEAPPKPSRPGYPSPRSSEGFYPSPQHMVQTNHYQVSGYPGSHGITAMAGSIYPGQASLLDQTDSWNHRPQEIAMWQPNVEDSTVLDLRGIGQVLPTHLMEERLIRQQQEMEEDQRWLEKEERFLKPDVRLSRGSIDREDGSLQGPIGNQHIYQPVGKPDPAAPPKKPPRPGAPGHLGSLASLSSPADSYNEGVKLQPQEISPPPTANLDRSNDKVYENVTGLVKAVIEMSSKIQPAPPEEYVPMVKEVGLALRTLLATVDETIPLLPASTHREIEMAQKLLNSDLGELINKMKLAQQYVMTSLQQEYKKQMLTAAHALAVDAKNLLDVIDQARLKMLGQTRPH
CSK(h), sequence (P41240 whole entry): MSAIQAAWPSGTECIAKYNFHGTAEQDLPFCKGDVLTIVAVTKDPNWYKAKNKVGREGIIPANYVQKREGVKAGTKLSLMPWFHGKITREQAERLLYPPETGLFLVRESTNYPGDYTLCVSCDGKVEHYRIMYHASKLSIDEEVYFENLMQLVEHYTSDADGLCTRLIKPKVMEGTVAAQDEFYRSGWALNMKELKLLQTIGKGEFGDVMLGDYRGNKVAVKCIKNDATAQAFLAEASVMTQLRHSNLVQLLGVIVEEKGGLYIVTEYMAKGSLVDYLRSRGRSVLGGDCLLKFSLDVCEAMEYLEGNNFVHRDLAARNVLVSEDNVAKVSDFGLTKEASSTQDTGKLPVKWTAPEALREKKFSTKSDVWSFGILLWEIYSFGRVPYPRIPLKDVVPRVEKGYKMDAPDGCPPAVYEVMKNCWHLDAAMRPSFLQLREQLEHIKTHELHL

Sequence | % activity (CSK(h)) [%] | % activity (Itk(h)) [%] | % activity (EGFR(L861Q)(h)) [%] | % activity (FAK(h)) [%] | % activity (RIPK2(h)) [%] | % activity (Ron(h)) [%] | % activity (STK33(h)) [%] | % activity (mTOR(h)) [%] | % activity (MKK6(h)) [%] | % activity (Pim-3(h)) [%] | % activity (TSSK1(h)) [%] | % activity (BrSK2(h)) [%] | % activity (JNK2α2(h)) [%] | % activity (CDK2/cyclinA(h)) [%] | % activity (MARK1(h)) [%]
YARAAARQARAKALNRQLGVA [MMI-0200] | 33 | 98 | 74 | 110 | 98 | 120 | 98 | 110 | 98 | 94 | 98 | – | – | – | –
FAKLAARLYRKALARQLGVAA [MMI-0300] | 49 | 77 | 25 | – | 97 | 93 | 45 | 91 | 48 | 80 | 79 | 83 | 98 | 86 | 132
KAFAKLAARLYRKALARQLGVAA [MMI-0400] | 16 | 63 | 22 | 96 | 98 | 79 | 52 | 93 | 44 | 80 | 79 | 86 | 96 | 92 | 120
HRRIKAWLKKIKALARQLGVAA [MMI-0500] | 2 | 7 | 15 | 94 | 30 | 46 | 16 | 135 | 18 | 37 | 46 | 84 | 81 | 87 | 110
